Laboratory results published in patent publication US20210155689A1 (SHANGHAI PHARMAEXPLORER, published 2021).
Several values for one entry are separate records, joined by “and”; a condition that tells them apart may be missing. Equal values may be shown once.

Key:
[1] = biological target: human LAG-3 protein with hFc tag (hLAG-3-hFc protein) (human) (UniProt P18627); assay: ELISA, hLAG-3-hFc coated 1 ug/ml; 0.2400 ug/mL
[2] = biological target: human LAG-3 protein with hFc tag (hLAG-3-hFc protein) (human) (UniProt P18627); assay: ELISA, hLAG-3-hFc coated 1 ug/ml; 1.2000 ug/mL
[3] = biological target: human LAG-3 protein with hFc tag (hLAG-3-hFc protein) (human) (UniProt P18627); assay: ELISA, hLAG-3-hFc coated 1 ug/ml; 0.0019 ug/mL
[4] = biological target: human LAG-3 protein with hFc tag (hLAG-3-hFc protein) (human) (UniProt P18627); assay: ELISA, hLAG-3-hFc coated 1 ug/ml; 0.0480 ug/mL
[5] = biological target: human LAG-3 protein with hFc tag (hLAG-3-hFc protein) (human) (UniProt P18627); assay: ELISA, hLAG-3-hFc coated 1 ug/ml; 0.0000 ug/mL
[6] = biological target: human LAG-3 protein with hFc tag (hLAG-3-hFc protein) (human) (UniProt P18627); assay: ELISA, hLAG-3-hFc coated 1 ug/ml; 0.0096 ug/mL
[7] = biological target: human LAG-3 protein with hFc tag (hLAG-3-hFc protein) (human) (UniProt P18627); assay: ELISA, hLAG-3-hFc coated 1 ug/ml; 6.0000 ug/mL
[8] = biological target: human LAG-3 protein with hFc tag (hLAG-3-hFc protein) (human) (UniProt P18627); assay: ELISA, hLAG-3-hFc coated 1 ug/ml; 30.0000 ug/mL
[9] = biological target: human LAG-3 protein with hFc tag (hLAG-3-hFc protein) (human) (UniProt P18627); assay: FACS, blocks LAG-3-hFc binding to MHC II on Raji; 22.222 nM
[10] = biological target: human LAG-3 protein with hFc tag (hLAG-3-hFc protein) (human) (UniProt P18627); assay: FACS, blocks LAG-3-hFc binding to MHC II on Raji; 200.000 nM
[11] = biological target: monkey LAG-3 (full length, on the cell surface) (monkey); assay: FACS, HEK293-cLAG-3; 0.320 nM
monkey LAG-3 (full length, on the cell surface) (monkey), sequence (P18627 other isoform, or with tags, fused parts or gaps limits assumed): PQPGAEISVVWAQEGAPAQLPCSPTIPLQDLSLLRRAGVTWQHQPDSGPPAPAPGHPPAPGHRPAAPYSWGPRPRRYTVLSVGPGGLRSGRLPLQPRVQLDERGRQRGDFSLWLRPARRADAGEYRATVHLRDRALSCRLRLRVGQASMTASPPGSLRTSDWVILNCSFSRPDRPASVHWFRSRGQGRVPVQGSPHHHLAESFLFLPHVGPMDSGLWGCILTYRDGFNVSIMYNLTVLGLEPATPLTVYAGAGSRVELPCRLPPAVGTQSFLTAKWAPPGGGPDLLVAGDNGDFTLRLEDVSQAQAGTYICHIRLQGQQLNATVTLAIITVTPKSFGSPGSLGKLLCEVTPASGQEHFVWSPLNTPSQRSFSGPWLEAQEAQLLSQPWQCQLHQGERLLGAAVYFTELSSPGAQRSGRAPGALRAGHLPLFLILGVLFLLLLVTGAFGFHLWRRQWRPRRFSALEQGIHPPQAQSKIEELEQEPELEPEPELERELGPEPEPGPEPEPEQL

[12] = biological target: monkey LAG-3 (full length, on the cell surface) (monkey); assay: FACS, HEK293-cLAG-3; 0.064 nM
[13] = biological target: human LAG-3 protein with hFc tag (hLAG-3-hFc protein) (human) (UniProt P18627); assay: FACS, blocks LAG-3-hFc binding to MHC II on Raji; 0.823 nM
[14] = biological target: monkey LAG-3 (full length, on the cell surface) (monkey); assay: FACS, HEK293-cLAG-3; 0.000 nM
[15] = biological target: human LAG-3 (full length, on the cell surface) (human) (UniProt P18627); assay: FACS, HEK293-hLAG-3; 40.000 nM
human LAG-3 (full length, on the cell surface) (human), sequence (P18627 23-525 limits assumed): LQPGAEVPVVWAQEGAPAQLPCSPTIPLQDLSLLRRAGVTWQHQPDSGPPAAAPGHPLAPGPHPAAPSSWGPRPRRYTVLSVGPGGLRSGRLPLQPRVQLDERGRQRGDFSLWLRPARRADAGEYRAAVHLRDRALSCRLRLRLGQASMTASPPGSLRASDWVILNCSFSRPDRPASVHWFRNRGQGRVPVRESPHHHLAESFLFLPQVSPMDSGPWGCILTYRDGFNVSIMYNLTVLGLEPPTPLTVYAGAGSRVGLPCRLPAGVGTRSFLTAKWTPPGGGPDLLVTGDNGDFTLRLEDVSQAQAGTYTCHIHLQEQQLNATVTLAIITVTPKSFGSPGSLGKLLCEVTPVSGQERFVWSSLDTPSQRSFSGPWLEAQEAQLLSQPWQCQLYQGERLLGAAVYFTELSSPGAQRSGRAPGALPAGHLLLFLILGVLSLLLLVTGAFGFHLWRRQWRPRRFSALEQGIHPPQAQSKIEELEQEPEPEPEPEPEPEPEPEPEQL

[16] = biological target: human LAG-3 (full length, on the cell surface) (human) (UniProt P18627); assay: FACS, HEK293-hLAG-3; 0.013 nM
[17] = biological target: monkey LAG-3 (full length, on the cell surface) (monkey); assay: FACS, HEK293-cLAG-3; 0.013 nM
[18] = biological target: human LAG-3 protein with hFc tag (hLAG-3-hFc protein) (human) (UniProt P18627); assay: FACS, blocks LAG-3-hFc binding to MHC II on Raji; 0.274 nM
[19] = biological target: human LAG-3 protein with hFc tag (hLAG-3-hFc protein) (human) (UniProt P18627); assay: FACS, blocks LAG-3-hFc binding to MHC II on Raji; 66.667 nM
[20] = biological target: monkey LAG-3 (full length, on the cell surface) (monkey); assay: FACS, HEK293-cLAG-3; 1.600 nM
[21] = biological target: monkey LAG-3 (full length, on the cell surface) (monkey); assay: FACS, HEK293-cLAG-3; 40.000 nM
[22] = biological target: human LAG-3 (full length, on the cell surface) (human) (UniProt P18627); assay: FACS, HEK293-hLAG-3; 0.000 nM
[23] = biological target: human LAG-3 (full length, on the cell surface) (human) (UniProt P18627); assay: FACS, HEK293-hLAG-3; 0.064 nM
[24] = biological target: monkey LAG-3 (full length, on the cell surface) (monkey); assay: FACS, HEK293-cLAG-3; 8.000 nM
[25] = biological target: human LAG-3 protein with hFc tag (hLAG-3-hFc protein) (human) (UniProt P18627); assay: FACS, blocks LAG-3-hFc binding to MHC II on Raji; 2.469 nM
[26] = biological target: human LAG-3 (full length, on the cell surface) (human) (UniProt P18627); assay: FACS, HEK293-hLAG-3; 0.320 nM
[27] = biological target: human LAG-3 protein with hFc tag (hLAG-3-hFc protein) (human) (UniProt P18627); assay: FACS, blocks LAG-3-hFc binding to MHC II on Raji; 0.000 nM
[28] = biological target: human LAG-3 protein with hFc tag (hLAG-3-hFc protein) (human) (UniProt P18627); assay: FACS, blocks LAG-3-hFc binding to MHC II on Raji; 7.407 nM
[29] = biological target: human LAG-3 (full length, on the cell surface) (human) (UniProt P18627); assay: FACS, HEK293-hLAG-3; 1.600 nM
[30] = biological target: human LAG-3 (full length, on the cell surface) (human) (UniProt P18627); assay: cell-based or functional assay
[31] = biological target: human LAG-3 (full length, on the cell surface) (human) (UniProt P18627); assay: FACS, HEK293-hLAG-3; 8.000 nM
[32] = biological target: monkey LAG-3 (full length, on the cell surface) (monkey); assay: FACS, HEK293-cLAG-3; 200.000 nM
[33] = biological target: human LAG-3 (full length, on the cell surface) (human) (UniProt P18627); assay: FACS, HEK293-hLAG-3; 200.000 nM

human LAG-3 protein with hFc tag (hLAG-3-hFc protein) (human), sequence (P18627 23-450): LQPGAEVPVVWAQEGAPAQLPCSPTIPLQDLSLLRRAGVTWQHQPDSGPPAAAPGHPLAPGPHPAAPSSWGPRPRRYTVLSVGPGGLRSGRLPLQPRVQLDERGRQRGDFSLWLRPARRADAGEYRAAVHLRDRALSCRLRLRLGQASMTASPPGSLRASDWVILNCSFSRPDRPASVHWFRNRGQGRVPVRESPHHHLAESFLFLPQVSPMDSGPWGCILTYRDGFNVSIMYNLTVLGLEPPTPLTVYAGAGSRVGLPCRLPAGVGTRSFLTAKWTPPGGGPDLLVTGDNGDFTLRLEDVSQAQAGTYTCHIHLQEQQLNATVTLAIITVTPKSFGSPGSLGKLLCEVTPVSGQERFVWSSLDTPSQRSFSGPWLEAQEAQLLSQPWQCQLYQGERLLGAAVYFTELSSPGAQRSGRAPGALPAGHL

## Negative protein (control of Table 2)
[1]
  OD450: 0.07 OD450 and 0.06 OD450
[2]
  OD450: 0.07 OD450 and 0.06 OD450
[3]
  OD450: 0.06 OD450
[4]
  OD450: 0.06 OD450
[5]
  OD450: 0.06 OD450
[6]
  OD450: 0.06 OD450
[7]
  OD450: 0.09 OD450
[8]
  OD450: 0.16 OD450 and 0.14 OD450

## mIgG1 (murine IgG control) (antibody)
[9]
  Inhibition rate (%): 2.8% and 4.2%
[10]
  Inhibition rate (%): 12.8% and -0.9%
[11]
  Mean fluorescence intensity: 3.3 MFI and 4 MFI
[12]
  Mean fluorescence intensity: 3.2 MFI and 4 MFI
[13]
  Inhibition rate (%): 13.8% and 4%
[14]
  Mean fluorescence intensity: 3.4 MFI and 4 MFI
[15]
  Mean fluorescence intensity: 2.8 MFI and 4 MFI
[16]
  Mean fluorescence intensity: 2.9 MFI and 3.8 MFI
[17]
  Mean fluorescence intensity: 3.5 MFI and 4 MFI
[18]
  Inhibition rate (%): 5.3% and -3.9%
[19]
  Inhibition rate (%): 6.7% and 7.4%
[20]
  Mean fluorescence intensity: 3.2 MFI and 4 MFI
[21]
  Mean fluorescence intensity: 3.3 MFI and 4.1 MFI
[22]
  Mean fluorescence intensity: 3 MFI and 3.8 MFI
[23]
  Mean fluorescence intensity: 2.9 MFI and 3.8 MFI
[24]
  Mean fluorescence intensity: 3.3 MFI and 4.1 MFI
[25]
  Inhibition rate (%): 13.7% and 1.8%
[26]
  Mean fluorescence intensity: 2.7 MFI and 3.8 MFI
[27]
  Inhibition rate (%): 8.2% and -11.5%
[28]
  Inhibition rate (%): 3.4% and 2.8%
[29]
  Mean fluorescence intensity: 2.7 MFI and 3.9 MFI
[30]
  mIL-2 (pg/mL), antigen-specific T lymphocyte stimulation test; control IgG 0.016 ug/mL: 177 pg/mL and 104 pg/mL
  mIL-2 (pg/mL), antigen-specific T lymphocyte stimulation test; control IgG 0.08 ug/mL: 175 pg/mL and 89.2 pg/mL
  mIL-2 (pg/mL), antigen-specific T lymphocyte stimulation test; control IgG 2 ug/mL: 174 pg/mL and 84.1 pg/mL
  mIL-2 (pg/mL), antigen-specific T lymphocyte stimulation test; control IgG 4 ug/mL (so in the source): 145 pg/mL and 84.2 pg/mL
  mIL-2 (pg/mL), antigen-specific T lymphocyte stimulation test; control IgG 10 ug/mL: 169 pg/mL and 108 pg/mL
[31]
  Mean fluorescence intensity: 2.9 MFI and 3.9 MFI
[32]
  Mean fluorescence intensity: 3.6 MFI and 4.2 MFI
[33]
  Mean fluorescence intensity: 2.8 MFI and 4.2 MFI
